Measurements from US5861377A, “Antistasin type serine protease inhibitors” (Novartis AG, priority 1994, dated 1999).
pKi: −log10 of the molar value.

Experiments:
trypsin = molecular target: T1, trypsin (Bos taurus, UniProt P00760); assay: Inhibitory activity during purification: amidolytic activity of trypsin; type: biochemical; settings: trypsin inhibition; fraction of the isolation step
T1 sequence (P00760 24-246): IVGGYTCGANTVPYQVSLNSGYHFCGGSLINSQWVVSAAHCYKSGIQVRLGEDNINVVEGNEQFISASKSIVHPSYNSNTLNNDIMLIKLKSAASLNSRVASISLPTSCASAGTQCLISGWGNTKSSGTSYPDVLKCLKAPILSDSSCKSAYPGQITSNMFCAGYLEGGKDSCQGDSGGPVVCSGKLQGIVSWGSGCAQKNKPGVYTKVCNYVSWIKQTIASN
Description: During the purification procedure inhibitory activity is assayed by measuring the inhibition of the amidolytic activities of trypsin and chymotrypsin. Samples are incubated with trypsin (225 nM) in 50 mM Tris/HCl (pH 7.8), 0.1% (mass/vol) Triton X-100, for 12 min at 25° C. The assay is started by addition of the substrate benzoyl-L-argininep-nitroanilide (0.4 mM, final concentration). The released nitroaniline is monitored photometrically at 405 nm for 3.5 min using an UVIKON 930® photometer (Kontron; Eching, Germany).
(§1) One inhibition unit (IU) is defined as the amount of inhibitor which reduces the substrate hydrolysis by 1 mmol per min.

chymotrypsin = chymotrypsin (Bos taurus, UniProt P00766); assay: Inhibitory activity during purification: amidolytic activity of chymotrypsin; type: biochemical; settings: chymotrypsin inhibition; fraction of the isolation step
From the text: as §1

Subtilisin = assay: Inhibition of amidolytic activity of serine proteinases: subtilisin; type: biochemical; settings: Bact. subt. subtilisin; inhibitor 1.3 mM
Description: (§2) To determine the specificity of hirustasin, its effect on the amidolytic activity of various serine proteinases (see Tab. 3) is determined. Therefore, proteinases are incubated with the inhibitor (1.3 mM) for 15 and for 30 min, and the residual enzyme activities are measured after addition of a suitable substrate. Equilibrium dissociation constants (Ki) for the complexes of hirustasin with individual proteases are determined essentially as described by Bieth (Bull. Europ. Physopat. Resp. (1980), 16, 183-195). Briefly, increasing concentrations of the inhibitor are incubated with a constant concentration of the enzyme; the time necessary to reach equilibration of the enzyme-inhibitor complex is determined for each protease in preliminary experiments. Substrate is then added and the residual enzyme activity measured. Apparent Ki -values are calculated by fitting the steady state velocities to the equation for tight binding inhibitors (Morrison, Biochem. Biophys. Acta (1969), 185, 269-286) using non-linear regression analysis.

Leukocyte elastase = molecular target: T2, Leukocyte elastase (Homo sapiens, UniProt P08246); assay: Inhibition of amidolytic activity of serine proteinases: leukocyte elastase; type: biochemical; settings: inhibitor 1.3 mM
T2 sequence (P08246 30-267): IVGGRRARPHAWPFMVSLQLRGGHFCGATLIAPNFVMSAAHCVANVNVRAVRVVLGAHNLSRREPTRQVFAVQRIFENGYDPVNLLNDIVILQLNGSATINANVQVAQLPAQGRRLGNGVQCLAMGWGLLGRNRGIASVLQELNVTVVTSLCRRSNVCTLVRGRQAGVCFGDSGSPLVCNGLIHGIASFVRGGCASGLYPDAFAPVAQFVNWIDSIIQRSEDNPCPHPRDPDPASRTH
Description: as §2

[1] = test system: partial thromboplastin time; assay: In vitro blood coagulation: partial thromboplastin time
Description: (§3) To determine whether hirustasin inhibits the blood coagulation in vitro, its effect on the prothrombin time and the partial thromboplastin time is measured using an Amelung KC10 coagulometer (Lemgo, Germany) and the reagent sets from Behringwerke AG (Marburg, Germany) according to the guidelines of the manufacturers.

Thrombin = molecular target: T3, Thrombin (Homo sapiens, UniProt P00734); assay: Inhibition of amidolytic activity of serine proteinases: thrombin; type: biochemical; set-up: effect on proteinase activity: dose or concentration left out as unconfirmed
T3 construct: the other proteinases tested including human α-thrombin and factor Xa
Description: as §2, with “(1.3 mM)” left out

Factor Xa = Factor Xa (Homo sapiens, UniProt P00742); assay: Inhibition of amidolytic activity of serine proteinases: factor Xa; type: biochemical; set-up: effect on proteinase activity: dose or concentration left out as unconfirmed
Chain of Factor Xa (P00742 235-488 limits assumed): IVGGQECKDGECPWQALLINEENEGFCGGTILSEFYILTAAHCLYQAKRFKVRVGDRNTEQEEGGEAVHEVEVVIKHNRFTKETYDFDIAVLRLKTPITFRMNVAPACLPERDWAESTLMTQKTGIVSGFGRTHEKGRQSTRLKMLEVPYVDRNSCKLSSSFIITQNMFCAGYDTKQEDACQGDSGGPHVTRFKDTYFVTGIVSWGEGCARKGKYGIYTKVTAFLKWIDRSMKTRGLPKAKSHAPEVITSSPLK
Chain of Factor Xa (P00742 41-179 partner limits assumed): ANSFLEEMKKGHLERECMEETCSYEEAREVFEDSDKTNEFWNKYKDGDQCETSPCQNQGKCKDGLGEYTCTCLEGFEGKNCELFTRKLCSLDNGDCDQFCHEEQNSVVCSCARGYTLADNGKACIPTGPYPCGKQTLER
Description: as §2, with “(1.3 mM)” left out

[2] = test system: blood coagulation cascade; assay: Blood coagulation cascade in vitro (general statement)
Description: as §3

Pancreatic elastase = Pancreatic elastase (Sus scrofa, UniProt P00772); assay: Inhibition of amidolytic activity of serine proteinases: pancreatic elastase; type: biochemical; settings: porcine pancreatic elastase; inhibitor 1.3 mM
Chain of Pancreatic elastase (P00772 27-266): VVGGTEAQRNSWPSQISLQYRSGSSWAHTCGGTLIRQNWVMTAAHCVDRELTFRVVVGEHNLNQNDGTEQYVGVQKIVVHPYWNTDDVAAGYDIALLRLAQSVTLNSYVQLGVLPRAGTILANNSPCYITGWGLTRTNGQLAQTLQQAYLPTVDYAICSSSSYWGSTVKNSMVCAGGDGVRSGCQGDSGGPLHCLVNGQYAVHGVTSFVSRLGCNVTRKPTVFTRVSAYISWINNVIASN
Description: as §2

Chymase = assay: Inhibition of amidolytic activity of serine proteinases: chymase; type: biochemical; settings: porcine chymase; inhibitor 1.3 mM
Description: as §2

Urokinase = Urokinase (Homo sapiens, UniProt P00749); assay: Inhibition of amidolytic activity of serine proteinases: urokinase; type: biochemical; settings: inhibitor 1.3 mM
Description: as §2

Plasma kallikrein = Plasma kallikrein (Homo sapiens, UniProt P03952); assay: Inhibition of amidolytic activity of serine proteinases: plasma kallikrein; type: biochemical; settings: inhibitor 1.3 mM
Chain of Plasma kallikrein (P03952 391-638 limits assumed): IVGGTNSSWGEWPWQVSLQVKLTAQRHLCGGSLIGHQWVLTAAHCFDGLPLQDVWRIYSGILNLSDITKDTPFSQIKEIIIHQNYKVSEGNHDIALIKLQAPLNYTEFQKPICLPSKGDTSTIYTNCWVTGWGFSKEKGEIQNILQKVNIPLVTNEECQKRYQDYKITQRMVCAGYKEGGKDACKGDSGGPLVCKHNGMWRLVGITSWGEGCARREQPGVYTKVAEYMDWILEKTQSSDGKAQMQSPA
Chain of Plasma kallikrein (P03952 20-390 partner limits assumed): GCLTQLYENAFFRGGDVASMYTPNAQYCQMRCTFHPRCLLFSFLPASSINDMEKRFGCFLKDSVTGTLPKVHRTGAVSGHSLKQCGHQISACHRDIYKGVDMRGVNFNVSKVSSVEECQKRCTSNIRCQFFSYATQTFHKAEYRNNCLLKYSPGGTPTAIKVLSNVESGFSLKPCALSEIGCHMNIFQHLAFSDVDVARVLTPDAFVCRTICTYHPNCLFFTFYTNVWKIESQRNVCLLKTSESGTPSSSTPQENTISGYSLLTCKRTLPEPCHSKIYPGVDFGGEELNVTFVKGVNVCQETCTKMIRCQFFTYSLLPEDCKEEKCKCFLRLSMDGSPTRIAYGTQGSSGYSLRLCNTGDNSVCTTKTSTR
Description: as §2

prothrombin time = assay: In vitro blood coagulation: prothrombin time (Quick)
Description: as §3

Substance	Trypsin SA [IU/mg] (specific activity) (trypsin)	Chymotrypsin SA [IU/mg] (specific activity) (chymotrypsin)	pKi (Subtilisin)	pKi (Leukocyte elastase)	effect on partial thromboplastin time ([1]; concentration of 1.3 mM)	Partial Thromboplastin Time ([1]; hirustasin 1.3 mM, buffer control 47.3 s)	pKi (Thrombin; human thrombin, inhibitor 1.3 mM)	effect on proteinase activity (Thrombin; human α-thrombin, highest concentration used)	effect on proteinase activity (Factor Xa; factor Xa, highest concentration used)	pKi (Factor Xa; human factor Xa, inhibitor 1.3 mM)	effect on catalytic activity of isolated factor Xa (Factor Xa; isolated factor Xa)	effect on blood coagulation cascade in vitro [2]	pKi (Pancreatic elastase)	pKi (Chymase)	pKi (Urokinase)	pKi (Plasma kallikrein)	effect on prothrombin time (prothrombin time; concentration of 1.3 mM)	Quick (prothrombin time; hirustasin 1.3 mM, buffer control 79%)
Mono S ®: pooled Mono S fractions, the finally isolated hirustasin (TQGNTCGGETCSAAQVCLKGKCVCNEVHCRIRCKYGLKKDENGCEYPCSCAKASQ; UniProt P80302 1-55, looked up)	2.7 IU/mg	0.15 IU/mg	–	–	–	–	–	–	–	–	–	–	–	–	–	–	–	–
Hirustasin: polypeptide of SEQ ID NO:1, antistasin-type serine proteinase inhibitor isolated from the medical leech Hirudo medicinalis (TQGNTCGGETCSAAQVCLKGKCVCNEVHCRIRCKYGLKKDENGCEYPCSCAKASQ)	–	–	< 5.89	< 5.89	no significant effect	47.9 s	< 5.89	no effect	no effect	< 5.89	neither affects	neither affects	< 5.89	< 5.89	< 5.89	< 5.89	no significant effect	80%
